Measured values reported in patent publication US20160091498.

Target: purified histone H4 (New England Biolabs), P62805

B1: purified ACK1 (protein)
chain: GEGPLQSLTCLIGEKDLRLLEKLGDGSFGVVRRGEWDAPSGKTVSVAVKCLKPDVLSQPEAMDDFIREVNAMHSLDHRNLIRLYGVVLTPPMKMVTELAPLGSLLDRLRKHQGHFLLGTLSRYAVQVAEGMGYLESKRFIHRDLAARNLLLATRDLVKIGDFGLMRALPQNDDHYVMQEHRKVPFAWCAPESLKTRTFSHASDTWMFGVTLWEMFTYGQEPWIGLNGSQILHKIDKEGERLPRPEDCPQDIYNVMVQCWAHKPEDRPTFVALRDFLLEAQPTDMRALQDFEEPDKLHIQMNDVITVIEGRAENYWWRGQNTRTLCVGPFPRNVVTSVAGLSAQDISQPLQNSFIHTGHGDSDPRHCW
  in vitro kinase assay with all the four core histones, immunoblotting with pY88-H4 antibodies: Presence of band exclusively when ACK1 was incubated with H4
  in vitro kinase assay, immunoblotting with pY88-H4 and pTyr antibodies: indeed H4 is directly Tyr-phosphorylated by ACK1
